From PMC4740875, “Sequential domain assembly of ribosomal protein S3 drives 40S subunit maturation” (Nature Communications, 2016) come the findings set out here.

What is called stoichiometry N is the number of molecules, sites or subunits per partner or assembly.

The labels stand for the following.
B2: full-length Rps3 (ribosomal protein S3), SAXS sample (natural protein, S. cerevisiae, UniProt P05750 1-240, looked up)
chain: MVALISKKRKLVADGVFYAELNEFFTRELAEEGYSGVEVRVTPTKTEVIIRATRTQDVLGENGRRINELTLLVQKRFKYAPGTIVLYAERVQDRGLSAVAQAESMKFKLLNGLAIRRAAYGVVRYVMESGAKGCEVVVSGKLRAARAKAMKFADGFLIHSGQPVNDFIDTATRHVLMRQGVLGIKVKIMRDPAKSRTGPKALPDAVTIIEPKEEEPILAPSVKDYRPAEETEAQAEPVEA
notes: Rps3, S. cerevisiae, full-length; modelled as Rps3 (1-249 including tag); How the SAXS samples were produced is not described; the methods describe His6-tagged proteins from E. coli BL21 (DE3) Rosetta Star in general; also called r-protein S3
B6: full-length Yar1 (Yar1-FL), SAXS sample (natural protein, S. cerevisiae, UniProt P46683 1-200, looked up)
chain: MGLHSEPLDQEDQDTIILDARAGDLDSLKDIFTTLVSPELLSTCKESESDSTALHMAAANGHIETVRYILETVSRANSAEDLKAFVNEVNKTGNTALHWASLNGKLDVVKLLCDEYEADPFIRNKFGHDAIFEAENSGKEEVETYFLKKYDVEPEDDEEDTQTEGKNSVQITKGTEIEQVTKEATEALREETEKLNINKD
notes: Yar1, ankyrin-repeat protein, S. cerevisiae, full-length; modelled as Yar1 (1-214 including tag; 14 N-terminal residues from the His-tag); not shown: His-tag, N-terminal, kept

The target of one data set is T1, Yar1 core (8-153) (S. cerevisiae, UniProt P46683 8-153).
T1 construct: Yar1, S. cerevisiae, structural core lacking the N- and C-terminal extensions, residues 8-153; also called Yar1 structural core; Yar1(8-153)
T1 sequence (looked up): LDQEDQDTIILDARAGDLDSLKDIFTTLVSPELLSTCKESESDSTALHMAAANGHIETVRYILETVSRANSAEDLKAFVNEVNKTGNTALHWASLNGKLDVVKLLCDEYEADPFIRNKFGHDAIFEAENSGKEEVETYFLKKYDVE
Nature of the data set: SAXS; small-angle X-ray scattering in solution, direct injection or size exclusion separation before data collection; Tris-HCl 50 mM and NaCl 200 mM, pH 7.5; Rps3 constructs measured in complex with Yar1 constructs. The following applies: both partners purified. (SEC sorts molecules by how far they enter the pores of the column.)

Data set [1] addresses B6. Described as above. The following applies: both partners purified.
Data set [2] deals with the molecule itself. Described as above.
Data set [3] has as its target T2, Enp1-Flag-TEV-ProteinA (Enp1-FPA) (S. cerevisiae, UniProt P38333 1-483).
T2 construct: Enp1, S. cerevisiae; A TEV site lies between Flag and Protein A; expressed from pET15b; source: E. coli, purified (anti-Flag agarose); not shown: Flag, C-terminal, kept; Protein A, C-terminal, kept
T2 sequence (looked up): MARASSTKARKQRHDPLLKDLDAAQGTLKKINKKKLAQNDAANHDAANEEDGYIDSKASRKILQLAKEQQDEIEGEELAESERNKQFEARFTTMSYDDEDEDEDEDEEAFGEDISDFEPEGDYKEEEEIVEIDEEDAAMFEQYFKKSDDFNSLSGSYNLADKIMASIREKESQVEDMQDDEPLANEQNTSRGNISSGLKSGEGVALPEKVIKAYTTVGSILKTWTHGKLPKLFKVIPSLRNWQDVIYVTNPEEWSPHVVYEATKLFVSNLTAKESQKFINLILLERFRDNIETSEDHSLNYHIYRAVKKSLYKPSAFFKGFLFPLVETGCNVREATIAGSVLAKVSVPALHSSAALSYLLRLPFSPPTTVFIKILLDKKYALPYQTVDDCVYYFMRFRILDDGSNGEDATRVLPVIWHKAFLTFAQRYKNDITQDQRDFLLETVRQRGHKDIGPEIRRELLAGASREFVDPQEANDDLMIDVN
Nature of the data set: pull-down; in vitro competition: purified His6-Rps3/Yar1 complex immobilized on Ni-NTA agarose, incubated with buffer or an ∼6-fold molar excess (over Rps3) of purified Ltv1-Flag and/or Enp1-FPA; supernatants and eluates by Coomassie or western blot. The note with it: both partners purified. (A western blot detects proteins with antibodies after separation by electrophoresis.)

The target in data set [4] is T3, His6-Rps3 (S. cerevisiae, UniProt P05750 1-240).
T3 construct: Rps3, S. cerevisiae; expressed from pETDuet-1; source: E. coli BL21 (DE3) Rosetta Star, purified (Ni-NTA agarose) in complex with Yar1 or with Ltv1-Flag; not shown: His6, N-terminal, kept
T3 sequence (looked up): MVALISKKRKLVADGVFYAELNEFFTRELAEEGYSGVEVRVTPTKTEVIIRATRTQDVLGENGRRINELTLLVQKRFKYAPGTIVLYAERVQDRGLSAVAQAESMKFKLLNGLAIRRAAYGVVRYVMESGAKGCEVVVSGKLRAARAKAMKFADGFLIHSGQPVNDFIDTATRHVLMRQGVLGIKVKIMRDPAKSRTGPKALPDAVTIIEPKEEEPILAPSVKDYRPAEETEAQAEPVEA
Described as above. The following applies: both partners purified.

Data set [5] concerns the target T3, His6-Rps3. Nature of the data set: pull-down; in vitro competition: purified His6-Rps3/Ltv1-Flag complex immobilized on Ni-NTA agarose, incubated with buffer or an ∼1.5-fold or 6-fold molar excess of purified Flag-Yar1; eluates and supernatants by Coomassie or western blot. The note with it: both partners purified.
In data set [6] the target is B2. Nature of the data set: SAXS; small-angle X-ray scattering in solution, direct injection or size exclusion separation before data collection; Tris-HCl 50 mM and NaCl 200 mM, pH 7.5; Rps3 constructs measured in complex with Yar1 constructs. The following applies: both partners purified.

B1: Rps3 N-domain (1-95) (domain or fragment, S. cerevisiae, UniProt P05750 1-95, looked up)
chain: MVALISKKRKLVADGVFYAELNEFFTRELAEEGYSGVEVRVTPTKTEVIIRATRTQDVLGENGRRINELTLLVQKRFKYAPGTIVLYAERVQDRG
notes: Rps3, S. cerevisiae, N-domain, residues 1-95
With B1, the binding result (with Yar1 core (8-153); in data set [1]) was “binds” in each case.
Consider B2, for which, in data set [2], the “stoichiometry N” value was found to be 2.

B3: Ltv1-Flag (natural protein, S. cerevisiae, UniProt P34078 1-463, looked up)
chain: MSKKFSSKNSQRYVVVHRPHDDPSFYDTDASAHVLVPVSNPNKTSPEADLRKKDVSSTKPKGRRAHVGEAALYGINFDDSEYDYTQHLKPIGLDPENSIFIASKGNEQKVEKKNIEDLFIEPKYRRDEIEKDDALPVFQRGMAKPEYLLHQQDTTDEIRGFKPDMNPALREVLEALEDEAYVVNDDVVVEDISKKTQLQGDNYGEEEKEDDIFAQLLGSGEAKDEDEFEDEFDEWDIDNVENFEDENYVKEMAQFDNIENLEDLENIDYQADVRRFQKDNSILEKHNSDDEFSNAGLDSVNPSEEEDVLGELPSIQDKSKTGKKKRKSRQKKGAMSDVSGFSMSSSAIARTETMTVLDDQYDQIINGYENYEEELEEDEEQNYQPFDMSAERSDFESMLDDFLDNYELESGGRKLAKKDKEIERLKEAADEVSKGKLSQRRNRERQEKKKLEKVTNTLSSLKF
notes: Ltv1, S. cerevisiae; expressed from pET15b; source: E. coli, purified (anti-Flag agarose); also co-expressed in E. coli with His6-Rps20 (in lysate) and purified in complex with His6-Rps3; not shown: Flag, C-terminal, kept
B3: the binding result in data set [3] is “binds”.

B4: Yar1 of the purified His6-Rps3/Yar1 complex (natural protein, S. cerevisiae, UniProt P46683 1-200, looked up)
chain: MGLHSEPLDQEDQDTIILDARAGDLDSLKDIFTTLVSPELLSTCKESESDSTALHMAAANGHIETVRYILETVSRANSAEDLKAFVNEVNKTGNTALHWASLNGKLDVVKLLCDEYEADPFIRNKFGHDAIFEAENSGKEEVETYFLKKYDVEPEDDEEDTQTEGKNSVQITKGTEIEQVTKEATEALREETEKLNINKD
notes: Yar1, S. cerevisiae; No tag is named for Yar1 in this complex; source: E. coli BL21 (DE3) Rosetta Star, purified in complex with His6-Rps3 (Ni-NTA agarose)
As for B4, the binding result with His6-Rps3 [4] is on record as “binds”.

B5: Flag-Yar1 (natural protein, S. cerevisiae, UniProt P46683 1-200, looked up)
chain: MGLHSEPLDQEDQDTIILDARAGDLDSLKDIFTTLVSPELLSTCKESESDSTALHMAAANGHIETVRYILETVSRANSAEDLKAFVNEVNKTGNTALHWASLNGKLDVVKLLCDEYEADPFIRNKFGHDAIFEAENSGKEEVETYFLKKYDVEPEDDEEDTQTEGKNSVQITKGTEIEQVTKEATEALREETEKLNINKD
notes: Yar1, S. cerevisiae; expressed from pETDuet-1; source: E. coli, purified (anti-Flag agarose); not shown: Flag, N-terminal, kept
As for B5, the binding result with His6-Rps3 [5] is on record as “binds”.
For B6, the binding result in data set [6] is reported as “binds”.
